Results from the supplement of paper PMC7877785.
± gives the uncertainty stated by the source.

Test: self-splicing fitness, log relative to wild type (ln ratio); higher = more splicing; Tetrahymena group I intron in knt gene, E. coli kanamycin selection, DiMSum; sequences stand for … in CUCUCU…GGAGGGAAAAGUUAUCAGGCAUGCACCUGGUAGCUAGUCUUUAAACCAAUAGAUUGCAUCGGUUUAAAAGGCAAGACCGUCAAAUUGCGGGAAAGGGGUCAACAGCCGUUCAGUACCAAGUCUCAGGGGAAACUUUGAGAUGGCCUUGCAAAGGGUAUGGUAAUAAGCUGACGGACAUGGUCCUAACCACGCAGCCAAGUCCUAAGUCAACAGAUCUUCUGUUGAUAUGGAUGCAGUUCACAGACUAAAUGUCGGUCGGGGAAGAUGUAUUCUUCUCAUAAGAUAUAGUCGGACCUCUCCUUAAUGGGAGCUAGCGGAUGAAGUGAUGCAACACUGGAGCCGCUGGGAACUAAUUUGUAUGCGAAAGUAUAUUGAUUAGUUUUGGAGUACUCGUGGUCG
In short: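 The eight P1ex-region nucleotides of an intron in the knt kanamycin-resistance gene on pET-22b(+) were all randomised and the library put into E. coli BL21(DE3). Six replicate transformations were grown overnight at 37°C or 30°C on LB agar with or without 25 μg/mL kanamycin, together with 100 μg/mL carbenicillin, 50 μM IPTG and 0.2% rhamnose. Colonies were pooled and amplicon-sequenced on an Illumina HiSeq 2500. Fitness from DiMSum is the error-weighted combination of wild-type-normalised replicate fold changes, kanamycin over none.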

| Sequence | self-splicing fitness (ln) (30 °C) | self-splicing fitness (ln) (37 °C) |
| --- | --- | --- |
| GCGAAGCAAUAUUACGAAUU | -2.58 ± 0.16 | -2.38 ± 0.3 |
| AUCUAGCAAUAUUACGACAU | 0.0957 ± 0.013 | 0.273 ± 0.032 |
| GUCCAGCAAUAUUACGUGAG | 0.151 ± 0.044 | 0.375 ± 0.065 |
| CGAAAGCAAUAUUACGUUCA | -0.312 ± 0.074 | 0.0231 ± 0.091 |
| GACGAGCAAUAUUACGUUGG | -3.34 ± 0.12 | -3.25 ± 0.22 |
| UAUGAGCAAUAUUACGGCAC | -2.09 ± 0.28 |  |
| CCUAAGCAAUAUUACGAGAU | -3.2 ± 0.27 | -3.33 ± 0.31 |
| GUUGAGCAAUAUUACGUUUU | -2.91 ± 0.22 | -2.88 ± 0.3 |
| GCGUAGCAAUAUUACGCAGU | -4.05 ± 0.34 | -2.28 ± 0.25 |
| UCCAAGCAAUAUUACGGUUU | -3.75 ± 0.2 | -2.48 ± 0.21 |
| UGCUAGCAAUAUUACGUAAG | -2.3 ± 0.19 | -1.35 ± 0.18 |
| AGGAAGCAAUAUUACGAGUA | -2.59 ± 0.15 | -2.21 ± 0.17 |
| GCGUAGCAAUAUUACGACUU | -0.421 ± 0.11 | 0.154 ± 0.15 |
| AAUGAGCAAUAUUACGGGCU | -2.51 ± 0.18 | -2.21 ± 0.46 |
| GCUUAGCAAUAUUACGUUAC | -2.56 ± 0.18 | -1.88 ± 0.19 |
| GCCGAGCAAUAUUACGGGGA | -1.36 ± 0.069 | -0.555 ± 0.069 |
| GAGCAGCAAUAUUACGAAGC | -3.93 ± 0.25 | -2.21 ± 0.15 |
| UGGGAGCAAUAUUACGGACU | -1.17 ± 0.36 | -2.35 ± 0.46 |
| UGUCAGCAAUAUUACGCUAG | -0.41 ± 0.061 | -0.214 ± 0.077 |
| GAGAAGCAAUAUUACGGUGA | -1.88 ± 0.15 | -0.755 ± 0.15 |
| UGGGAGCAAUAUUACGACGA |  | -0.296 ± 0.36 |
| UUAUAGCAAUAUUACGGUCU | -3.22 ± 0.25 | -1.28 ± 0.22 |
| GGGCAGCAAUAUUACGUCGA | -0.0821 ± 0.07 | 0.711 ± 0.1 |
| UGCCAGCAAUAUUACGGAGC | -3.73 ± 0.4 | -3.1 ± 0.35 |
| GUAGAGCAAUAUUACGAUGG | -2.34 ± 0.091 | -1.59 ± 0.11 |

| Sequence | self-splicing fitness (ln) (30 °C) | self-splicing fitness (ln) (37 °C) |
| --- | --- | --- |
| GGAUAGCAAUAUUACGUUUU | -1.33 ± 0.11 | -1.62 ± 0.14 |
| ACUUAGCAAUAUUACGUGUC | -3.37 ± 0.16 | -2.7 ± 0.25 |
| UCUGAGCAAUAUUACGGCAU | -2.79 ± 0.27 |  |
| UCACAGCAAUAUUACGUCAU | -3.09 ± 0.17 | -1.43 ± 0.12 |
| AACCAGCAAUAUUACGUGAC | -2.59 ± 0.087 | -1.37 ± 0.1 |
| UAUUAGCAAUAUUACGGAAG | -2.63 ± 0.31 | -1.9 ± 0.25 |
| CCGCAGCAAUAUUACGCUAG | -1.53 ± 0.1 | -2.05 ± 0.12 |
| GCUGAGCAAUAUUACGGUGG | -3.32 ± 0.22 | -3.95 ± 0.37 |
| UUAUAGCAAUAUUACGGGGG | -3.15 ± 0.4 |  |
| UAAUAGCAAUAUUACGGCCU | -1.16 ± 0.14 | -0.77 ± 0.19 |
| GAAUAGCAAUAUUACGCAUU | -3.04 ± 0.22 | -1.43 ± 0.2 |
| UGACAGCAAUAUUACGUAAC | -4.4 ± 0.46 | -2.38 ± 0.19 |
| ACUAAGCAAUAUUACGUUCG | -1.06 ± 0.074 | -0.408 ± 0.092 |
| AGCGAGCAAUAUUACGGCAG | -1.87 ± 0.14 | -1.07 ± 0.23 |
| CCGAAGCAAUAUUACGAUAC | -3.86 ± 0.47 | -1.95 ± 0.26 |
| CUACAGCAAUAUUACGAAUC | -4.32 ± 0.23 | -2.61 ± 0.23 |
| AGCGAGCAAUAUUACGAGGG | -2.74 ± 0.3 | -1.19 ± 0.35 |
| UUUCAGCAAUAUUACGCAUG | -0.765 ± 0.093 | -0.0959 ± 0.11 |
| CCUCAGCAAUAUUACGUAAA | -3.87 ± 0.24 | -3.05 ± 0.29 |
| CCAGAGCAAUAUUACGCGGA | -3.2 ± 0.34 | -2.49 ± 0.24 |
| CGCUAGCAAUAUUACGCCGU | -0.129 ± 0.17 | -0.719 ± 0.18 |
| UUAUAGCAAUAUUACGAGGC | -3.95 ± 0.37 | -3.71 ± 0.42 |
| CAAAAGCAAUAUUACGACUU | -1.83 ± 0.098 | -0.224 ± 0.098 |
| GGAGAGCAAUAUUACGACCU | -1.9 ± 0.24 | -0.666 ± 0.26 |
| AUGCAGCAAUAUUACGGAAU | -2.37 ± 0.088 | -0.752 ± 0.093 |

| Sequence | self-splicing fitness (ln) (30 °C) | self-splicing fitness (ln) (37 °C) |
| --- | --- | --- |
| CUAAAGCAAUAUUACGUCGG | -0.261 ± 0.061 | -0.189 ± 0.078 |
| AGCGAGCAAUAUUACGGUCC | -0.807 ± 0.14 | -0.398 ± 0.18 |
| GAGAAGCAAUAUUACGUGCU | -2.51 ± 0.21 | -0.848 ± 0.17 |
| AUCCAGCAAUAUUACGUCAC | -2.35 ± 0.19 | -2.44 ± 0.22 |
| UGUGAGCAAUAUUACGAUAA | -2.33 ± 0.16 | -1.92 ± 0.21 |
| CCCCAGCAAUAUUACGACAG | -3.96 ± 0.12 | -2.92 ± 0.14 |
| AGUCAGCAAUAUUACGUAGC | -2.97 ± 0.13 | -0.778 ± 0.097 |
| UAAGAGCAAUAUUACGGGGC | -4 ± 0.42 | -2.83 ± 0.32 |
| GGCUAGCAAUAUUACGAAUA | -0.326 ± 0.37 | -1.7 ± 0.28 |
| UAUCAGCAAUAUUACGGCGG | -0.918 ± 0.086 | 0.373 ± 0.093 |
| CGCUAGCAAUAUUACGAUAC | -3.07 ± 0.21 | -2.31 ± 0.16 |
| UACAAGCAAUAUUACGGAUC | -2.59 ± 0.21 | 0.047 ± 0.15 |
| GCGCAGCAAUAUUACGGGAG | -3.14 ± 0.18 | -1.39 ± 0.13 |
| GGCUAGCAAUAUUACGUGCA | 0.326 ± 0.14 | 0.0604 ± 0.18 |
| CCUGAGCAAUAUUACGAAAU | -3.15 ± 0.29 | -0.975 ± 0.19 |
| GAAUAGCAAUAUUACGGACU | -0.83 ± 0.07 | -0.397 ± 0.087 |
| GCGGAGCAAUAUUACGCUCC |  | -0.469 ± 0.39 |
| ACGUAGCAAUAUUACGGGGG | -3.84 ± 0.2 | -2.44 ± 0.16 |
| GAAAAGCAAUAUUACGUAAC | -2.11 ± 0.18 | -1.38 ± 0.17 |
| GCGUAGCAAUAUUACGAGAG | -3.3 ± 0.28 | -3.27 ± 0.33 |
| GGCCAGCAAUAUUACGAAAG | -4.21 ± 0.37 | -2.71 ± 0.41 |
| AGUGAGCAAUAUUACGUUAU | -3.13 ± 0.17 | -3.08 ± 0.27 |
| CCCUAGCAAUAUUACGCCGG | -3.09 ± 0.17 | -1.6 ± 0.22 |
| AGGCAGCAAUAUUACGUUUU | -1.59 ± 0.065 | -0.435 ± 0.079 |
| GCUGAGCAAUAUUACGUCUU | -1.91 ± 0.11 | -1.17 ± 0.15 |

| Sequence | self-splicing fitness (ln) (30 °C) | self-splicing fitness (ln) (37 °C) |
| --- | --- | --- |
| UUUAAGCAAUAUUACGCGCU | -1.15 ± 0.18 | -0.609 ± 0.2 |
| GUCCAGCAAUAUUACGUGGG | -3.68 ± 0.13 | -2.36 ± 0.14 |
| UGAGAGCAAUAUUACGUAAA | -4.31 ± 0.39 | -2.43 ± 0.45 |
| CGCGAGCAAUAUUACGAUUU | -3.35 ± 0.21 | -3.39 ± 0.24 |
| UCGUAGCAAUAUUACGACGA | -3.15 ± 0.3 | -0.365 ± 0.11 |
| CCCCAGCAAUAUUACGCCUU | -3 ± 0.22 | -2.4 ± 0.37 |
| ACAUAGCAAUAUUACGUUUG | -2.83 ± 0.12 | -2.51 ± 0.15 |
| CCUCAGCAAUAUUACGCAUC | -2.68 ± 0.18 | -2.85 ± 0.41 |
| UUCCAGCAAUAUUACGUGGC | -3.11 ± 0.15 | -3.15 ± 0.24 |
| GUUAAGCAAUAUUACGGCCA | -0.63 ± 0.17 | -0.359 ± 0.23 |
| CUCCAGCAAUAUUACGGAUA | -1.82 ± 0.11 | -0.962 ± 0.1 |
| UCGAAGCAAUAUUACGGCAG | -2.11 ± 0.097 | -0.963 ± 0.11 |
| CUUGAGCAAUAUUACGCUAG | -3.17 ± 0.28 | -2.48 ± 0.27 |
| UUUUAGCAAUAUUACGCAUU | -2.39 ± 0.11 | -1.27 ± 0.15 |
| UGUGAGCAAUAUUACGGUGU | -3 ± 0.31 | -2.84 ± 0.24 |
| UUACAGCAAUAUUACGUGGC | -2.87 ± 0.26 | -2.92 ± 0.34 |
| GCAGAGCAAUAUUACGGGGC | -3.05 ± 0.36 |  |
| GUCCAGCAAUAUUACGGCUG | -3.93 ± 0.31 | -3.61 ± 0.39 |
| CGUUAGCAAUAUUACGAAGU | -2.41 ± 0.34 | -1.29 ± 0.3 |
| UGAUAGCAAUAUUACGUGAU | -3.09 ± 0.11 | -2.43 ± 0.17 |
| UAGUAGCAAUAUUACGCGUC | -3.22 ± 0.38 | -1.88 ± 0.36 |
| CGGGAGCAAUAUUACGCGUA | -2.29 ± 0.29 | -1.03 ± 0.24 |
